Target: AtBAM1 ectodomain (residues 20-629) (Arabidopsis thaliana) (UniProt O49545)
Experiment: ITC

Sequence of UniProt O49545 (O49545 20-629): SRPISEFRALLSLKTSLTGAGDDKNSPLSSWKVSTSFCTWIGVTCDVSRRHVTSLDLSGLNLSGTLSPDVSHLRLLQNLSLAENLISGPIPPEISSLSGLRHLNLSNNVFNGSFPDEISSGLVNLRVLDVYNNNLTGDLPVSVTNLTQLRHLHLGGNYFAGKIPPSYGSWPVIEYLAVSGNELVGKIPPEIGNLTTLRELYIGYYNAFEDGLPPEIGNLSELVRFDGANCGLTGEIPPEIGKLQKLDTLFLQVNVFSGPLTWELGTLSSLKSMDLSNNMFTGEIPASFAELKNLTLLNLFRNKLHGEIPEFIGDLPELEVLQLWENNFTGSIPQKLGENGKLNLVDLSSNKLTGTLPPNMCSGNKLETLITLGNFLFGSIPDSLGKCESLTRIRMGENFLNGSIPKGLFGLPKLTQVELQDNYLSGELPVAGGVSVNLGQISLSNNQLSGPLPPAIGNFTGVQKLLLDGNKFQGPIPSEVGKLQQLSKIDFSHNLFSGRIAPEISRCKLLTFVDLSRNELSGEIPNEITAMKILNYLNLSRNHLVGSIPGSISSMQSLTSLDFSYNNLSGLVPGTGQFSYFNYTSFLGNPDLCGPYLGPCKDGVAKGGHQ

Question: With AtCLV3p (Arabidopsis CLAVATA3 peptide) as the substance, how does the fold lower affinity than AtCLE13p read?
Answer: 1000 fold

— publication PMC12236821
